Results: US20030027981A1, “Urokinase-type plasminogen activator receptor” (priority 1989, published 2003)
Read-outs that look alike come from different tables or passages of the source.

Target: uPAR-bound u-PA (Homo sapiens, UniProt P00749)
Assay type: cell-based
Description: U937 cells were grown in suspension in RPMI 1640 medium supplemented with 5% heat-inactivated fetal calf serum. PMA-stimulation of U937 cells was performed at a cell density of […] cells/ml with 150 nM PMA for 4 days. The adherent cell population was harvested with a rubber scraper and resuspended in PBS. […] The effect of PAI's on the activity of cell-bound u-PA was determined by the addition of varying concentrations of PAI-1 (0.18-18.4 nM) or PAI-2 (1.13-56.7 nM) to the incubations at the same time as the addition of plasminogen. Curves were then constructed of plasmin concentration against time. […] [pln]∞ was calculated from the relationship: [[…]]0) equation.2 where Δ[pln]0 is the initial rate of plasmin generation which was determined in control incubations in the absence of inhibitors. […] Association rate constants (second-order rate constants) were calculated from the slope of the line of double reciprocal plots of kapp against inhibitor concentration.

B1: PAI-2: human type-2 plasminogen activator inhibitor purified from U937 cells (protein, UniProt P05120 1-415, looked up)
Plasminogen activator …: MEDLCVANTLFALNLFKHLAKASPTQNLFLSPWSISSTMAMVYMGSRGSTEDQMAKVLQFNEVGANAVTPMTPENFTSCGFMQQIQKGSYPDAILQAQAADKIHSSFRSLSSAINASTGNYLLESVNKLFGEKSASFREEYIRLCQKYYSSEPQAVDFLECAEEARKKINSWVKTQTKGKIPNLLPEGSVDGDTRMVLVNAVYFKGKWKTPFEKKLNGLYPFRVNSAQRTPVQMMYLREKLNIGYIEDLKAQILELPYAGDVSMFLLLPDEIADVSTGLELLESEITYDKLNKWTSKDKMAEDEVEVYIPQFKLEEHYELRSILRSMGMEDAFNKGRANFSGMSERNDLFLSEVFHQAMVDVNEEGTEAAAGTGGVMTGRTGHGGPQFVADHPFLFLIMHKITNCILFFGRFSSP
Rate of inhibition of cell-bound u-PA relative to u-PA in solution (U937 cells): approximately 60%
Association rate constant (u-PA bound to uPAR on PMA-stimulated U937 cells): 110000 M⁻¹ s⁻¹
Association rate constant (u-PA bound to uPAR on U937 cells): 330000 M⁻¹ s⁻¹
